IC50 data for one substance are collected here from patent EP1783227A1.

The target of the assay is human CCR2 (endogenous, on THP-1 cells, THP-1 cell membranes, PBMC and whole blood leukocytes) (human) (UniProt P41597). The experiment in a line: competition with 0.1 nM [125I]MCP-1 on fresh PBMC (500,000 cells), filtration and scintillation counting.

Several values for one entry are separate records, joined by “and”; a condition that tells them apart may be missing. Equal entries are not always repeated.

UniProt P41597, sequence (P41597 whole entry): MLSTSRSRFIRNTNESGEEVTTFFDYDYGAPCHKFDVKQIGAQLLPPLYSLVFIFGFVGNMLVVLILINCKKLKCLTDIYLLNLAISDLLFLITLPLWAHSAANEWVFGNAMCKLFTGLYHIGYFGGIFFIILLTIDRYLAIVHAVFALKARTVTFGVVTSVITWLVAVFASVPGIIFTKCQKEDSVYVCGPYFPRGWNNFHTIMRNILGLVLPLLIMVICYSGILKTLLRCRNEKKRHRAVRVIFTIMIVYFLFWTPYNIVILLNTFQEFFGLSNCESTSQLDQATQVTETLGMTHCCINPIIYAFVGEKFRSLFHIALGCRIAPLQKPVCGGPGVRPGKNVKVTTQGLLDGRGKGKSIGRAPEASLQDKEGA

murine monoclonal antibody LS132.1D9: the IC50 was 0.2 nM and 0.04 µg/mL.

As usually defined, the IC50 is the concentration that gives 50% inhibition. A low value points to greater potency.
